The target of test [1] is T1, human FcγRI expressed on CHO cells (human, UniProt P12314 16-374).
T1 construct: whole, on cells
Briefly: FACS, CHO cells expressing FcγRI. As for the experimental part:
For FACS analysis of the IgG mutants' binding to different FcγRs, FcγR overexpressing CHO cells were harvested using trypsin-EDTA and were suspended in cold staining buffer (3% BSA in PBS). Test IgG mutants, which were diluted in staining buffer, were added into the cells. The mixture was incubated 4° C. for 2 hours, and then washed twice with cold staining buffer and re-suspended in PE-labeled anti-human IgG followed by incubation at 4° C. for 2 hours. The mixture was washed twice with staining buffer and re-suspended in 2% PFA in PBS for FACS.
Background: In flow cytometry, cells or beads pass a laser one at a time.

Test [2] has as its target T2, human FcRIIIB protein (MednaBio, E1037) (human, UniProt O75015 17-200).
T2 construct: Bought; also called FcγRIIIB; FcgRIIIB
Briefly: BLI. The method, boiled down:
(§1)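 Binding was measured by biolayer interferometry on an Octet Red96 System. Commercial human Fc receptor proteins were loaded at 20 μg/mL onto anti-penta-HIS biosensors, which were then dipped into an 8-point 1:3 dilution series of test IgG starting at 300 nM in PBS with 0.1% BSA and 0.02% Tween-20, at pH 7.2 for Fcγ receptors and pH 6 for FcRn. Kd, kon and koff were obtained by global fitting, with data fitted to a 1:1 binding model.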

The target in test [3] is T3, human FcRIIA protein (MednaBio, E1033) (human, UniProt P12318 34-218, limits assumed).
T3 construct: Bought; also called FcγRIIA
T3 sequence (looked up): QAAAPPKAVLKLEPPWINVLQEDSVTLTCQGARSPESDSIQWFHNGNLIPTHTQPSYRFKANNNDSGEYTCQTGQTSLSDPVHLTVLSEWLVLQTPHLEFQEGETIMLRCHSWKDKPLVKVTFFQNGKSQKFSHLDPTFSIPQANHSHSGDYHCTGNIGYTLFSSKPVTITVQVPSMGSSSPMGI
Briefly: BLI. The method, boiled down: as §1

Test [4] concerns the target T4, human FcRIIB/C protein (MednaBio, E1034) (human, UniProt P31994 43-217, limits assumed).
T4 construct: Bought as FcRIIB/C; also called FcγRIIB; CD32B
T4 sequence (looked up): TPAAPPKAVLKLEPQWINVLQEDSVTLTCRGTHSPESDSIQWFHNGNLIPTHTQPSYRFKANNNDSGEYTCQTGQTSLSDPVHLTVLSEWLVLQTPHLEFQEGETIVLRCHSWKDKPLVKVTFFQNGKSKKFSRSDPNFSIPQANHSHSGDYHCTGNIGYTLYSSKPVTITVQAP
Briefly: BLI. The method in brief: as §1
For orientation: In BLI a coated tip is dipped into the sample, and binding shifts an interference pattern.

Test [5] addresses T5, human FcRn protein (MednaBio, E1032) (human, UniProt P55899 24-297; P61769 21-119).
T5 construct: Bought; assays at pH 6
Put plainly: BLI. The method in brief: as §1

Test [6] addresses T6, human FcRIIIA-V158 protein (MednaBio, E1035) (human, UniProt P08637 17-208).
T6 construct: Bought; also called FcγRIIIA(V); FcgRIIIA(V)
Briefly: BLI. The method in brief:
as §1

Test [7] concerns the target T7, human FcRIIIA-F158 protein (MednaBio, E1036) (human, UniProt P08637 17-208).
T7 construct: Bought; also called FcγRIIIA(F)
Put plainly: BLI. The method in brief: as §1

The target of test [8] is T8, human FcRI protein (MednaBio, E1031) (human, UniProt P12314 16-288, limits assumed).
T8 construct: Bought; loaded on anti-penta-HIS biosensors; also called FcγRI
T8 sequence (P12314 16-288 limits assumed): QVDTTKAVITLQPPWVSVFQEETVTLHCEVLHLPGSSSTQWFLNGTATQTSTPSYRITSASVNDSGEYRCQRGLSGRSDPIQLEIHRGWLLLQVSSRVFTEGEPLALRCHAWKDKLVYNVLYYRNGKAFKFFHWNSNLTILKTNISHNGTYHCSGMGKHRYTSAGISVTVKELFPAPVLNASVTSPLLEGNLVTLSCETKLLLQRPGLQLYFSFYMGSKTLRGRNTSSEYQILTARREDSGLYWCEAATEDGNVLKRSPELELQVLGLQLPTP
Briefly: BLI. The method in brief: as §1

Test [9] addresses T9, human FcγRIIC expressed on CHO cells (human, UniProt P31995 43-323).
T9 construct: whole, on cells
T9 sequence (looked up): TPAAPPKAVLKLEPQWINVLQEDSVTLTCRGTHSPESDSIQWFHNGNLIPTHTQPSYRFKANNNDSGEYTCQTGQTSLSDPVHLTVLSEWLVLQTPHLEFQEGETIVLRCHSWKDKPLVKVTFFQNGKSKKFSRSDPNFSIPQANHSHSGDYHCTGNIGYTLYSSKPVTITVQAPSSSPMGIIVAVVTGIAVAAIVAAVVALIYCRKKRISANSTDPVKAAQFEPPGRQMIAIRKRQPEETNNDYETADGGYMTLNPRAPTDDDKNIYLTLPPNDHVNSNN
Put plainly: FACS, CHO cells expressing FcγRIIC.

Test [10] addresses T2, human FcRIIIB protein (MednaBio, E1037). Put plainly: BLI. Here is the method: (§2) These IgG mutants were tested for binding to a panel of human Fc receptors (FcRs), including FcRn, using the Octet Red96 System (ForteBio, Model #Red96). Human FcR proteins were purchased commercially (FcRn, MednaBio, E1032; FcRI, MednaBio, E1031; FcRIIA, MednaBio, E1033; FcRIIB/C, MednaBio, E1034; FcRIIIA-F158, MednaBio, E1036; FcRIIIA-V158, MednaBio, E1035; FcRIIIB, MednaBio, E1037). All Fey receptor assays were performed at pH 7.2; all FcRn assays were performed at pH 6. The Fey receptors were loaded onto anti-penta-HIS1K (ForteBio, Cat #18-5122) biosensors at a concentration of 20 μg/mL. The loaded biosensors was then be dipped into an 8-point 1:3 dilution series of the test IgG molecules (including controls and the mutants described herein) in PBS with 0.1% BSA, 0.02% Tween-20 (pH 7.2) at a starting concentration of 300 nM. Kinetic analysis was performed using a 1:1 binding model and global fitting.
This is another data set of the same source.

Test [11] addresses T3, human FcRIIA protein (MednaBio, E1033). Briefly: BLI. As for the experimental part:
as §2
The source holds these as a separate data set.

Test [12] concerns the target T4, human FcRIIB/C protein (MednaBio, E1034). Put plainly: BLI. Here is the method:
as §2
This is another data set of the same source.

In test [13] the target is T5, human FcRn protein (MednaBio, E1032). Put plainly: BLI. As for the experimental part:
as §2
The source holds these as a separate data set.

Test [14] addresses T6, human FcRIIIA-V158 protein (MednaBio, …). Briefly: BLI. As for the experimental part:
as §2
This is another data set of the same source.

For test [15], the target named is T7, human FcRIIIA-F158 protein (MednaBio, …). Briefly: BLI. As for the experimental part: as §2
The source holds these as a separate data set.

Test [16] concerns the target T8, human FcRI protein (MednaBio, E1031). Put plainly: BLI. As for the experimental part: as §2
The source holds these as a separate data set.

Like-named read-outs stand apart in the source and are kept apart here.

T2 sequence (O75015 17-200 limits assumed): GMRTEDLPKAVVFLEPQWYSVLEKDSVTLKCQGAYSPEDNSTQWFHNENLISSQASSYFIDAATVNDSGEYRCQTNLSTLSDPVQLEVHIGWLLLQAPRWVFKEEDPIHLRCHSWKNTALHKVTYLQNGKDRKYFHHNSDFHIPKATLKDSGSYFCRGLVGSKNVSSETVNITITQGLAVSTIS
T5 sequence (P55899 24-297 limits assumed, form in doubt, chain 1 of 2): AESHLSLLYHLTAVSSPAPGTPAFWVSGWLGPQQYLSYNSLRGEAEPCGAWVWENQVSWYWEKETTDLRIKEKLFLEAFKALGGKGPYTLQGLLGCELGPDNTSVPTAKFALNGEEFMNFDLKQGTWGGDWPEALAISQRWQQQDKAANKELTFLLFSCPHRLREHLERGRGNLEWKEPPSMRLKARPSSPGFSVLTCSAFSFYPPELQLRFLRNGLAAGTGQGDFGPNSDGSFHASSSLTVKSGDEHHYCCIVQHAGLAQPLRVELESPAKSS
T5 sequence (P61769 21-119 limits assumed, form in doubt, chain 2 of 2): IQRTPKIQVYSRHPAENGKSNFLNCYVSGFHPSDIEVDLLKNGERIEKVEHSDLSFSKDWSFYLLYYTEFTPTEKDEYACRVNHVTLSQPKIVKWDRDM
T7 sequence (P08637 17-208 limits assumed): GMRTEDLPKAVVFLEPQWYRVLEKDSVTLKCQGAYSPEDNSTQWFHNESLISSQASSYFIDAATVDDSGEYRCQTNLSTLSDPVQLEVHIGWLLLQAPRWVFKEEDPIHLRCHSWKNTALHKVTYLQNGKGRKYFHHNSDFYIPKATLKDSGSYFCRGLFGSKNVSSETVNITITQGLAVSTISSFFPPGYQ
T6 sequence (P08637 17-208 F176V): as the sequence (P08637 17-208 limits assumed) above, with F160V counted along it
T1 sequence (P12314 16-374): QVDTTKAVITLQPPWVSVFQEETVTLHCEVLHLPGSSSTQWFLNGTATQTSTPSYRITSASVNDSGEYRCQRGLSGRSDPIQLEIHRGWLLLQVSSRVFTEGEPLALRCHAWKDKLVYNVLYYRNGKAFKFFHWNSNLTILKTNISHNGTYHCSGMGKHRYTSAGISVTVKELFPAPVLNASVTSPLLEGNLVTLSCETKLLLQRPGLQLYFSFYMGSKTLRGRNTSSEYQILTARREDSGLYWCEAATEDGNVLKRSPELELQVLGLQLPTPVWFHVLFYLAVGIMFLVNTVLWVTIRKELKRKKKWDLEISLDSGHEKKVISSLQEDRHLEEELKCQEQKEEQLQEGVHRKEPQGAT

B1: anti-CD137 IgG2 with Fc variant G2m8 (antibody)
heavy: EVQLVQSGAEVKKPGESLRISCKGSGYSFSTYWISWVRQMPGKGLEWMGKIYPGDSYTNYSPSFQGQVTISADKSISTAYLQWSSLKASDTAMYYCARGYGIFDYWGQGTLVTVSSASTKGPSVFPLAPCSRSTSESTAALGCLVKDYFPEPVTVSWNSGALTSGVHTFPAVLQSSGLYSLSSVVTVPSSNFGTQTYTCNVDHKPSNTKVDKTVERKCCVECPPCPAPPVAGPSVFLFPPKPKDTLMISRTPEVTCVVVDVSHEDPEVQFNWYVDGVEVHNAKTKPREEQFNSTFRVVSVLTVVHQDWLNGKEYKCKVSNKGFPAPIEKTISKTKGQPREPQVYTLPPSREEMTKNQVSLTCLVKGFYPSDIAVEWESNGQPENNYKTTPPMLDSDGSFFLYSKLTVDKSRWQQGNVFSCSVMHEALHNHYTQKSLSLSPGK
light: SYELTQPPSVSVSPGQTASITCSGDNIGDQYAHWYQQKPGQSPVLVIYQDKNRPSGIPERFSGSNSGNTATLTISGTQAMDEADYYCATYTGFGSLAVFGGGTKLTVLGQPKAAPSVTLFPPSSEELQANKATLVCLISDFYPGAVTVAWKADSSPVKAGVETTTPSKQSNNKYAASSYLSLTPEQWKSHRSYSCQVTHEGSTVEKTVAPTECS
notes: copies: 2 + 2
What is called Kd is the equilibrium constant for the complex coming apart. One may read the koff as the first-order rate constant of dissociation. A higher koff goes with a short-lived complex. As a reminder, the kon is the second-order rate constant of association. High values mean fast association, low ones slow association. Consider B1, for which the binding result in [1] is on record as “no binding (tested: 10 ug/ml)”; in test [2] it was “no binding (tested: 300 nM)”; in test [6], “no binding (tested: 300 nM)”; in [7], “no binding (tested: 300 nM)”; in test [8], “no binding (tested: 300 nM)”. In addition, the Kd worked out at 93 nM in [3], 500 nM in [4] and 6.3 nM in test [5]. The values for the koff in test [3], in [4] and in test [5] were 0.092 s⁻¹, 0.26 s⁻¹ and 0.0053 s⁻¹, respectively. Also, the association rate constant (kon) in [3] was 990000 M⁻¹ s⁻¹; in test [4], 510000 M⁻¹ s⁻¹; in test [5], 850000 M⁻¹ s⁻¹.

B2: anti-CD137 IgG2 with Fc variant G2m9 (antibody)
heavy: EVQLVQSGAEVKKPGESLRISCKGSGYSFSTYWISWVRQMPGKGLEWMGKIYPGDSYTNYSPSFQGQVTISADKSISTAYLQWSSLKASDTAMYYCARGYGIFDYWGQGTLVTVSSASTKGPSVFPLAPCSRSTSESTAALGCLVKDYFPEPVTVSWNSGALTSGVHTFPAVLQSSGLYSLSSVVTVPSSNFGTQTYTCNVDHKPSNTKVDKTVERKCCVECPPCPAPPVAGPSVFLFPPKPKDTLMISRTPEVTCVVVDVEHEDPEVQFNWYVDGVEVHNAKTKPREEQFNSTFRVVSVLTVVHQDWLNGKEYKCKVSNKGFPAPIEKTISKTKGQPREPQVYTLPPSREEMTKNQVSLTCLVKGFYPSDIAVEWESNGQPENNYKTTPPMLDSDGSFFLYSKLTVDKSRWQQGNVFSCSVMHEALHNHYTQKSLSLSPGK
light: SYELTQPPSVSVSPGQTASITCSGDNIGDQYAHWYQQKPGQSPVLVIYQDKNRPSGIPERFSGSNSGNTATLTISGTQAMDEADYYCATYTGFGSLAVFGGGTKLTVLGQPKAAPSVTLFPPSSEELQANKATLVCLISDFYPGAVTVAWKADSSPVKAGVETTTPSKQSNNKYAASSYLSLTPEQWKSHRSYSCQVTHEGSTVEKTVAPTECS
notes: copies: 2 + 2
B2: the binding result in test [2] is reported as “no binding (tested: 300 nM)”; in [6] it was “no binding (tested: 300 nM)”; in test [7] it was “no binding (tested: 300 nM)”; in test [8], “no binding (tested: 300 nM)”; in [9] it was “binds”. For the same molecule, the Kd in test [3] was 280 nM; in test [4], 52 nM; in [5], 22 nM. The koff in test [3] was 0.03 s⁻¹; in [4], 0.005 s⁻¹; in test [5], 0.0058 s⁻¹. Also, the kon came out at 110000 M⁻¹ s⁻¹ in test [3], 97000 M⁻¹ s⁻¹ in test [4] and 270000 M⁻¹ s⁻¹ in test [5].

B3: anti-CD137 IgG2 with Fc variant G2m10 (antibody)
heavy: EVQLVQSGAEVKKPGESLRISCKGSGYSFSTYWISWVRQMPGKGLEWMGKIYPGDSYTNYSPSFQGQVTISADKSISTAYLQWSSLKASDTAMYYCARGYGIFDYWGQGTLVTVSSASTKGPSVFPLAPCSRSTSESTAALGCLVKDYFPEPVTVSWNSGALTSGVHTFPAVLQSSGLYSLSSVVTVPSSNFGTQTYTCNVDHKPSNTKVDKTVERKCCVECPPCPAPEVSSVFLFPPKPKDTLMISRTPEVTCVVVDVSHEDPEVQFNWYVDGVEVHNAKTKPREEQFNSTFRVVSVLTVVHQDWLNGKEYKCKVSNKGFPAPIEKTISKTKGQPREPQVYTLPPSREEMTKNQVSLTCLVKGFYPSDIAVEWESNGQPENNYKTTPPMLDSDGSFFLYSKLTVDKSRWQQGNVFSCSVMHEALHNHYTQKSLSLSPGK
light: SYELTQPPSVSVSPGQTASITCSGDNIGDQYAHWYQQKPGQSPVLVIYQDKNRPSGIPERFSGSNSGNTATLTISGTQAMDEADYYCATYTGFGSLAVFGGGTKLTVLGQPKAAPSVTLFPPSSEELQANKATLVCLISDFYPGAVTVAWKADSSPVKAGVETTTPSKQSNNKYAASSYLSLTPEQWKSHRSYSCQVTHEGSTVEKTVAPTECS
notes: copies: 2 + 2
For B3, the binding result in test [1] was “no binding (tested: 10 ug/ml)”; in [9] it was “no binding (tested: 10 ug/ml)”; in [10], “no binding (tested: 300 nM)”; in test [12], “no binding (tested: 300 nM)”; in test [14], “no binding (tested: 300 nM)”; in [15], “no binding (tested: 300 nM)”. The binding result in test [16] is “no binding (tested: 300 nM)”. The Kd in test [11] is 17000 nM; in test [13], 21 nM. Moreover, the koff was 0.35 s⁻¹ in test [11] and 0.0088 s⁻¹ in test [13]. Moreover, the figures for the kon in test [11] and in test [13] were 21000 M⁻¹ s⁻¹ and 420000 M⁻¹ s⁻¹, respectively.

The record behind these values is patent US20200392227A1 (LYVGEN BIOPHARMA, published 2020).
